The text below walks through data of patent US20260034253A1, “NECTIN-4 MINIPROTEIN CONJUGATES” (Aktis Oncology, Inc., priority 2022, published 2026).

Bridge positions count the residues as written; N and C are the ends. Square brackets hold non-standard residues; d marks the D form. Primed or numbered codes have the meaning given here. Ends that are not written are not given here. * marks the point of attachment. DOTA = O=C(O)CN1CCN(CC(=O)O)CCN(CC(=O)*)CCN(CC(=O)O)CC1; Biotin = O=C1N[C@H]2[C@H](CS[C@H]2CCCCC(=O)*)N1; PEG4′ = polyethylene glycol (PEG4) linker; Lys(Me3) = C[N+](C)(C)CCCC[C@H](N)C(=O)O; PEG4 = NCCOCCOCCOCCOCCC(=O)O

Broadly, the tissue uptake is the percentage of the injected dose found per gram of tissue. What is called Kd is the free concentration of one partner at which half of the binding sites on the other are occupied at equilibrium, for simple one-to-one binding. A lower Kd goes with a tighter complex.

The chains are these.
T1: Human Nectin-4 (human, UniProt Q96NY8 32-349, limits assumed)
T1 construct: Amine-coupled to the Biacore chip; also called target protein; ligand
T1 sequence: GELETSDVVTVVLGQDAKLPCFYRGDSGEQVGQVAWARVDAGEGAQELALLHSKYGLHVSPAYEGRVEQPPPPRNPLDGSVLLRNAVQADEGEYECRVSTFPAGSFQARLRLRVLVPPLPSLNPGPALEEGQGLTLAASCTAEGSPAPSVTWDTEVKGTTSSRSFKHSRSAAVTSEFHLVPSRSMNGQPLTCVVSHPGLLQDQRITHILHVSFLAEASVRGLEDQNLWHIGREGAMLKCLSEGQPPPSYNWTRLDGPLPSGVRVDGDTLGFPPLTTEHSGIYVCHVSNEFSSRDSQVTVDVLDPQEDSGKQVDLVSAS

System in one data set: not listed separately
Nature of the data set: in vivo. Conditions: female, athymic nude, mouse, tumor (HT1376 xenograft), total radioactivity. How it is done:
In-111 labeling of miniproteins with MES buffer: In-111 was neutralized with 0.5 M MES buffer pH 5.5. This mixture was added to miniproteins prepared at 2 mg/mL in water with an equivalent amount of 0.5 M MES buffer pH 5.5, in a 1.5 mL Eppendorf vial and heated at 37° C. for 60 minutes. After the reaction, an HPLC sample was taken and an equivalent amount of 10 mM DTPA in 0.1 M ammonium acetate pH 5 was added and incubated for at least 15 minutes. The sample was then used for HPLC analysis.
In-111 labeling of miniproteins with Sodium Acetate buffer: In-111 was neutralized with 0.1 M sodium acetate buffer pH 5. […] After the reaction, an HPLC sample was taken and an equivalent amount of 10 mM DTPA in 0.1 M ammonium acetate pH 5 was added and incubated for at least 15 minutes. The sample was then used for HPLC analysis.
Purification of ^111In-miniproteins: Purification was done on two of the crude reaction mixtures mixed with 10 mM DTPA in 0.1 M ammonium acetate pH 5 and incubated for 15 minutes. A 3 kDa 0.5 mL Amicon filter was used for purification and the filter was spun at 15,000 RCF for 9 minutes. Saline was used as a formulation buffer.
Animals: Female athymic nude mice (6-8 weeks of age) were purchased from Charles River Laboratories and housed according to IACUC guidelines with ad libitum feeding. Biodistribution imaging experiments were performed on both null and tumor bearing athymic nude mice. Tumor xenograft models were generated by inoculating mice subcutaneously with 3×10^6 HT1376 cells, in 200 μL (50:50 PBS/Matrigel) in the right shoulder or right flank. Tumors were monitored for 14 days prior to SPECT/CT imaging dates. Mice with tumor volumes between 150 mm^3 and 250 mm^3 were selected for study inclusion and randomized to treatment arms. An excess of 60% of required imaging study mice were inoculated with tumor cells to ensure enough mice with appropriate tumor ranges were generated.
Animal grouping and Treatment: Animals were monitored for body weight bi-weekly and at the time of experimentation, grouped into groups of n=3. Animals were administered test-agents (TAs) that were prepared as described above. Animals received one of two standard injected dose activates and mass dose injections, depending at which site imaging studies were performed. • Site-1: 350 μCi of activity (^111In) at approximately […] peptide per mouse. • Site-2: 30MBq ([…]) of activity (^111In) at approximately 1 nM ([…]) of total peptide per mouse.
Animal imaging: Animals were sedated using isoflurane gas and imaged in a 3 bed hotel using a NanoScan SPECT/CT scanner. Animals were imaged at timepoints between 10 mins and 72 h post-dosing via SPECT scan, followed by CT scans. Details of the image process and analysis are described in Example 11.
Image Processing: Images were generated as SPECT/CT pair with the SPECT reported in units of activity. Namely, the values assigned to the voxels (volume elements) comprising the SPECT images were in units of μCi. SPECT images were co-registered to the CT scan for anatomical reference, resampled to 0.2 mm^3 voxels, masked to remove the CT background, and cropped to a uniform size prior to analysis.
Estimating tissue uptake: Regions of interest (ROIs) were defined using VivoQuant software. The kidneys and bladder were segmented as fixed volume phantoms and registered using the CT for anatomical reference. Two fixed volume spheres were used to create the liver ROI. Spheres were placed at appropriate anatomical locations based on CT and SPECT signal. Group and individual master spreadsheets were generated which included the volume, activity, and concentration (Activity/Volume) at each time point for each ROI generated. Additionally, plots of activity were generated using Matplotlib based python tools to highlight trends in the data.
As to “{DOTA-PEG4}-CEYDEEFFTALKRLRGGDICYYIQAKFQYLPKLCIEEILDNLGCS (disulfide 1-34, 20-44) [Compound C117]”, the tissue uptake at 4 h is 2.29 %ID/g.

With “{DOTA-PEG4}-CEYDEEFFTALKRLRGGDICYYIQKAFQYLPGLCIEEILDNLGCS (disulfide 1-34, 20-44) [Compound C121]”, the tissue uptake at 4 h was 2.03 %ID/g. For the molecule “{DOTA-PEG4}-CEYDEEFFTALSRLRGGDICYYIQQAFQYLPGLCIEEILDNLGCS (disulfide 1-34, 20-44) [Compound C133]”, the tissue uptake at 4 h was 1.29 %ID/g. For “{DOTA-PEG4}-CEYDEQFFTALARLRGGDICYYIQEQFATVPGLCIEEILDQLGCS (disulfide 1-34, 20-44) [Compound C129]”, the tissue uptake at 4 h is 1.77 %ID/g. Same read-out and setting: as for “{DOTA-PEG4}-CEYDEQFFTALKALRGGDICYYIQASFNYLPDLCIEEILDNLGCS (disulfide 1-34, 20-44) [Compound C113]”, the figure is 1.65 %ID/g; as for “{DOTA-PEG4}-CEYDEQFFTALSSLRGGDICYYIQEQFANVPGICIEEILDNLGCS (disulfide 1-34, 20-44) [Compound C137]”, 1.12 %ID/g.

A further data set concerns the target T1, Human Nectin-4. Nature of the data set: SPR (Biacore), Nectin-4 immobilised.
Conditions: not given
As to {Biotin-PEG4′}-CEYDEEFFTALKRLRGGDICEYIQA[Lys(Me3)]FQYLPGLCIEEILDNLGCS-OH (designed binder, disulfide 1-34, 20-44) [C201], binding was put at a Kd of 0.68 nM. Still for that read-out and setting: next, H-CEDDGEYFAGLQRLYGGDICYYIKLKFPKVPDLCIKEILDKLGC-OH (designed binder, disulfide 1-34, 20-44) [C1]: 184 nM; H-CEYDEEFFAGLKRLRGGDICYYIKKKFDKVPDLCIKEILDKLGC-OH (designed binder, disulfide 1-34, 20-44) [C3]: 9.68 nM. Molecule H-CEDDFQFFADLKRLRGGDICYYIRLKFDKVPDLCIKEILDKLGC-OH (designed binder, disulfide 1-34, 20-44) [C4] came in with a Kd of 14.4 nM.

The molecule CEYDEEFFAGLKRLRGGDICYYIKKKFDKVPDLCIEEILDKLGC-OH (designed binder, disulfide 1-34, 20-44) [C7] returned a dissociation constant Kd of 5.5 nM.
